Source: the supplement of paper PMC9170038

System: K4 kissing-loop RNA reporter
Assay: apparent KD of K4 kissing-loop reporter; higher = weaker reporter binding
Details: Eterna round: R107
Experimental: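 RNA-MaP round R107: designed RNA switches with theophylline, tryptophan, arginine or FMN aptamers are transcribed on-chip within common flanks. They are titrated with a labelled K4 kissing-loop RNA reporter in RNA-MaP buffer (100 mM Tris pH 7.5, 80 mM KCl, 4 mM MgCl2), without ligand or with the indicated ligand. Median apparent KD per design.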

[1] = input ligand: theophylline 20 uM
[2] = input ligand: tryptophan 2.4 mM
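Further: bound reporter read as fluorescence of individual clusters on recovered sequencing chips by microscopy, with normalized cluster intensities fitted with a binding model.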

Sequence	apparent KD of K4 kissing-loop reporter (input ligand: FMN 200 uM) [nM]	apparent KD of K4 kissing-loop reporter (input ligand: arginine 13.2 mM) [nM]	apparent KD of K4 kissing-loop reporter (input ligand: none) [nM]	apparent KD of K4 kissing-loop reporter [1] [nM]	apparent KD of K4 kissing-loop reporter [2] [nM]
AGAGUUAUAUGAGGAUAUGAGAUAGUUAAUGAGUGAGUUAUAGUGUAGUUUGGUUAGUGAUGUUAUUUAGAAGGCGUGAGUGAUG [reefmullin]	133	76.5	115	100	83.1
GUGUGACUAGUGAUGUUGGUUGCGUGGGAAGGAGCGCAGUAAAAUGCAGGUAGGUCGCCCGUAUCUCUGAUAAAAGAUUAAUUCA [KL-SSArg-A10]	181	128	158	137	153
UGGACCAGGAGUGAUGUUCCAAAAUGUGAUACCAGCCACGAAAGUGGCCCUUGGCAGCACUGCCAGGACGAAAACGUCCGGUCCU [#SwitchBubble 11 #StaticStem #K4Early]	285	191	278	268	154
GUAGCACUUGGUAGUGAUGUUACCAAGGACAAGGAUAUCAUCUCAAUGAGAAGGUGUCCUUGGUAACAGCUACGGGAAUAUCCCA [Omei KL FMN A Exc D v2]	275	194	226	242	246
CCAGGUUGCCGCAACGACCUGGAUUUUAGGGAGGAUAUCCAGAGCAGGAGAAGGCCCAGUGAUGUUGGGCCUGUGGAGCCCAUAU [Ararensoza]	274	149	176	120	151
GCUAUGGUUGGAAGGAGCGUUGAAUUGUUAGUAAGAGUGAUGUUCGAUAGUGGACAGUUGUAGCAGGUAGGUCGCCAACUAUAGC [KL-Arg B28]	329	570	277	560	520
UCGCCAAAGUCGGCCGCCACUCCGGGCCCUAUAAAUGGGCGCAGUGAUGUUGCGGCUAGGCCUCUGAGGACCGGGACUUUGUAGA [Esenusza]	116	0.509	152	233	152
UGUAUGUGUCAGCGAGUGAUGUUCGACGAUACCAGACUCGAUAGAGUCCCUUGGCAGCGUAAUGCAUGCCAAACUGGCACAUACU [#SwitchBubble 13 #K4Early]	657	532	682	594	600
AUUAAUUUCAGAGGAUAUCGUAUUUAUAUUAUAUCUUUCCAUAUUUGCAGUGAUGUUGCAUUAAUUCGAGAAGGCUGAUUUAUAA [JR_Nu_ExcFMNB_Sub024]	86.1	91	60.4	82.4	53.7
AAAAUUGCGGUUUUAAGAUCUUUUUGCUUACGAGGACCGGUACGGCCGCCACUCGAGUCAAGUGAUGUUUGAUUUUCUAUUAUUA [JR_ExcTryptoA_Sub015]	92.4	179	136	189	71.6
GGAUCGCAUGGCGAAAAGCCAUGCGAUCCACGAGGACCGGUACGGCCGCCACUCGCCGGAGUGAUGUUCCGCUACAGAUCUUAAA	187	121	256	144	301
GCCGUACGCAUGGAUACCAGACAACCAUUCUAAAUUUUGUGUCCGGUAGUGAUGUUACCUGUCCCUUGGCAGCCAUGCGUACGGC	306	261	319	317	338
AUCUUGUUUGGAGGAUAUUCUUUAUUUGACAUAACCUUCUAUAAGGUGCAGUGAUGUUGCAAUAUAGGAGAAGGUCGAGUGAGAU [Exclusion FMN B GF 18]	190	160	188	202	177
GUUACGCAUGGAAGGAGCGCAGGCUCAACAAAUAGCUCAGUGAUGUUGAGCAUAUUAAAACUGCAGGUAGGUCGCCAUGUGUAAC [Ex Arginine B K4 23]	651	547	657	671	588
GUCUAGCUAGCAGGAUAUAGCUGGUAGUGAUGUUACCACUAGAACUCUGCGGAAACGCAGAGUAUCCUAGAAGGGCUAGCUAGAC	95	65	75.4	63.9	66.8
GUUGCAGCCCGUGAUACCAGCAUCGGUCGCCGGGUCCAGUGAUGUUGGGCUUGCGUUCUAUGCCCUUGGCAGCGCGGCCUGACAG [Qulaanar]	415	104	174	393	415
UGGCGUAGAACCGCCGAAUCGCUGUGAGAAGGAGCGGUAAAAUUGCCAGGUAGGUCGCUCACAGCCUCACAGUGAUGUUGUGGGA [Cequralaza]	758	105	117	290	212
UUUAUAUAGUCGGCCGCCACUGAUUUUUUUAUAUGUUUAUGUUUAUACGAGUGAUGUUCGAUAUACAGGACCGGGACUUUUGUUA [JR_SSTryptoB_Sub018]	186	237	238	294	180
UGACUGGACUGAAGGAGCGAGCGAGACAAAGUCUCGGAAAUUCAGUGAUGUUGAUAUAUAACUCAGGUAGGUCGCAGUCUAGUCU [ArgBS 6 #SwitchBubble #StaticStem]	350	411	459	363	335
AGAGUUAUGCGAGGAUAUGCAGUUAGUACUCAAAGAGUACUAACGCAGAGUGAUGUUCUGUGAAACGCAGAAGGUGCAUAACUCA [Omei KL FMN B SS B v4]	161	509	549	480	485
UGAUAGGACAGAAGGAGCGGUAGUGAUGUUACCAAAAGUAUAAGGUGUCAAAAGACACCCUACCAGGUAGGUCGCUGUCCUAUCU	292	295	367	506	286
UAGUCCUAGUGAUGGUUAUCACGUGGUGGGCGAGGACCGGUACGGCCGCCACUCGACUUUGCAGUGAUGUUGCAAACCGGACAAU [Exclusion - Tryptophan A (Freestyle 18)]	228	278	237	287	237

Sequence	apparent KD of K4 kissing-loop reporter (input ligand: FMN 200 uM) [nM]	apparent KD of K4 kissing-loop reporter (input ligand: arginine 13.2 mM) [nM]	apparent KD of K4 kissing-loop reporter (input ligand: none) [nM]	apparent KD of K4 kissing-loop reporter [1] [nM]	apparent KD of K4 kissing-loop reporter [2] [nM]
AUAGACUUGCAGUGAUGUUGCAAGUGAGACUAGGAUAUCAGGAAGCUGAGAAGGAGUCAUCUCCUUCAGACAUCACUAUGAAGGA [whbob_SS_FMNA__2th180]	270	180	251	204	221
UUAUAUCUCUGACUUUCACUUUGCGUAUCUGAGGAUAUCUGAAUUCAGAGAAGGCAGUGAUGUUGCUUUGCUGUGUGUCUGAGAA [AK2 Exc FMN A]	702	464	526	499	372
UUGUUUGGUUGAGAGGUUGGGCGAAAUGAUACCAGUAUAUAAGAAUACCCUUGGCAGCAUAAGAAAGAUAUAGUGAUGUUGUAUA [SSTheophA.L]	597	320	431	560	411
UACCCGUGCUACUCCAUCCAUGCCACACCGCGAGGACCGGUACGGCCGCCACUCGUCGGAAAGUGAUGUUUUCAAACAAAGUUGC	151	93.4	142	292	76.9
AAUAAAAUCACGGCCGCCACUGAUACUAGUAUUAGCAGUGAUGUUGCUAUGUAUAAUUUAUUAAAUAGGACCGGGUGAAUAUUUA [#25 K4 Tryptophan B Exclusion]	298	220	267	350	256
UGAUAGGAGAGAAGGAGCGGGAGUGAUGUUCCCAAAGAUUGGUCUAGCAAAGCUGGACCCUCCCAGGUAGGUCGCUCUCCUAUCU [KL-XARG-B16]	382	419	434	405	357
GAGGUACAGGCGGCCGCCACUAGUGAUGUUAGUGAUAAAAGAUAUAGUAAAUAUCGGCAUGUAGAUAGGACCGGGCCUGAUGGAG [ptvcmullin]	234	214	234	234	209
UGACAUUGCUCAGAUACCAGACAAGAGGAUCACCCUUGUGCCAAAACGUACUAAAUAAAUGUCCCUUGGCAGCUGAGCAAUGUCU [TheoBX 13]	82.5	42.1	45.9	77.4	58.6
AGAGUUAUGCGAGGAUAUGCAGUUAGUACUCAAAGAGUACUAACAGCAGAGUGAUGUUCUGUGAAAGCAGAAGGUGCAUAACUCA [Omei KL FMN B SS B v7]	153	630	1120	641	671
UAGCGGUGGAGGCCACCGCUAUUCUGAGAAGGAGCGCAGAUGACUGCAGGUAGGUCGCUUAGAGCUUGCAGUGAUGUUGCAAGUU [Araatlaqu]	191	144	191	223	177
CCGCCGGUCGGAAGGAGCGCACGCCAGAGUGAUGUUCUGGCGCGGGCACUUUAUGCCCGCGUGCAGGUAGGUCGCCGAUUCUGGC [Mabema]	464	426	445	446	417
CCCAAGGGCGAACCGGUAUGAUCGACGGAUACCAGAGGCGAAAGCCUCCCUUGGCAGCCGGCUGUAGUGAUGUUACACUGGUUCU	139	98.9	168	186	143
UAAGAGGACCACUGCAAGAGUCCUCGAAUACGAGGACCGGUACGGCCGCCACUCGAUAAUUUGCAGUGAUGUUGCAAGUAAGAAU [BrourdMod 5 - Jieux - Same State Tryptophan A]	115	167	130	177	54.4
GGGAGUAGUGCGGCCGCCACUGUGAAAGAAGAAGAAUAUAGUGAUGUUAUAUAGGAAUUAAAGAAUAGGACCGGGCAUUAGAUUU [SSTRyptB.Q]	248	198	260	311	184
CACCGCAACUGAAGGAGCGCGCCAGUGAUGUUGGACGGCUUUGUCAAGGAAACUGCACCGGUGCAGGUAGGUCGCAGUUCGCGGC [Ededisa]	319	256	366	278	259
GCAGGACGAGGAGGAGGAUGAAUUACUGAAGGAGCGCAUAUUUUUGCAGGUAGGUCGCGGUAAAGAAGUAUAGUGAUGUUAUAUA [SSArgA.L]	482	476	470	406	408
UGAUACCAGACGGCCGCCACUAGACCAGUCAAAGACUGGAAGUGAUGUUUGAGGAGUGAUGUUCCUAGGACCGGGUCUGGUAUCU [TrypBX 3 #Palindromic #SwitchBubble #StaticStem]	97.9	81.7	90.5	89	41.5
AACCGAGGUAAUCCACAAUGAUUAGAAGAUACCAGAUAUAUAAAUAUCCCUUGGCAGCUUUGAAUGAGUGAUGUUCAUUUGUCAU [KL-SSTheo-A11]	126	207	159	214	104
AACGCUGGUGAAUAACACUAGCGAAAAUUCCGAGGACCGGUACGGCCGCCACUCGGCUAACUGCGAGUGAUGUUCGAUAAUAAAA [Mat - Mod of OpenEnded 3 - D9]	80.3	183	109	189	60.2
AAGUGAUGUUGUAGUGAUGUUGUGAUGUUGCAGGAUAUAUAGUGAUGUAGAAGGGUAUGUACUUAUUUUUUUUUUGAGUUUUGUU [xgghzrmullin]	82	32.3	60.2	47.1	68.3
UAACCUGUAAACGAUACCAGUUGCAUGGAAACUUGGUACUAGCUAGUGAUGUUAGCAAGCAACCCUUGGCAGCGUCGCCUGACAG [theeternabot_sameState_KL_Theo_B_17]	308	427	395	487	309
GGACCGCCAGUGAUGUUGGAGAUAAACUCCAAGGAUAUGACGAAAGUCAGAAGGUGGUAAUAAGACGUCAAAGACGUCAGGUCCA [FmnA 21 #SwitchBubble #K4Early]	970	206	361	301	266
